Data on two molecules can be found in paper PMC11088064 (2024).

The chains are these.
B1: His-tagged mPD-1 (PD1-M5228, ACRO Biosystem) (receptor)
chain: LEVPNGPWRSLTFYPAWLTVSEGANATFTCSLSNWSEDLMLNWNRLSPSNQTEKQAAFCNGLSQPVQDARFQIIQLPNRHDFHMNILDTRRNDSGIYLCGAISLHPKAKIEESPGAELVVTERILETSTRYPSPSPKPEGRFQGM

In assay [1] the target is RMP1-14. In words: SPR; pH 7.4. (In general: SPR reads the build-up and loss of mass on a sensor chip optically.)
For assay [2], the target named is RMP1-14. In words: SPR; pH 6.0.
Assay [3] concerns the target B1. In words: SPR; pH 6.0.
The target in assay [4] is T1, hPD-1 (PD-1-H5221, ACRO Biosystems) (human, UniProt Q15116 25-170). In words: SPR; pH 7.4.
T1 sequence (Q15116 25-170): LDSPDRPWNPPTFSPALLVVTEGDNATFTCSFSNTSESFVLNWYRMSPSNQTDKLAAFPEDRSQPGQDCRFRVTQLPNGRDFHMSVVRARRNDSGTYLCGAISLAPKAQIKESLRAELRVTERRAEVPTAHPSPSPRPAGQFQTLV
Assay [5] deals with B1. In words: SPR; pH 7.4.
In assay [6] the target is T1, hPD-1 (PD-1-H5221, ACRO Biosystems). Nature of the assay: SPR; pH 7.4. This is another data set of the same source.
Assay [7] deals with B1. Nature of the assay: SPR; pH 7.4.
For assay [8], the target named is T1, hPD-1 (PD-1-H5221, ACRO Biosystems). In words: SPR; pH 6.0.
For assay [9], the target named is B1. Nature of the assay: SPR; pH 6.0.

Regarding B1, in the assay with RMP1-14 [1], binding was put at a Kd of 2.43 nM and the koff (as a rule, a measure of how fast the partners let go of each other) was 0.00028 s⁻¹. Besides, in the assay with RMP1-14 [2], the dissociation constant (Kd) (in general, a measure of binding affinity in units of concentration) was 2.88 nM and the koff was 0.00025 s⁻¹.

B2: GNUV201 (antibody, V domains shown)
VH: QVQLVQSGAEVKKPGASVKVSCKASGYTFTGYWMHWVRQAPGQGLEWIGMIHPNSDTTTYNEKFKNRVTMTRDTSISTAYMELSRLRSDDTAVYYCAGTDQAAWFAFWGQGTTVTVSS
VL: DIVMTQTPLSLSVTPGQPASISCRSSQNIVHSQGDTYLEWYLQKPGQSPQLLIYKVSKRFSGVPDRFSGSGSGTDFTLKISRVEAEDVGVYYCFQGSHVPWTFGGGTKVEIK
With B2, the figures for the Kd in assay [3], in [6] and in assay [7] were 0.18 nM, 0.41 nM and 0.38 nM, respectively. The off-rate (koff) stood at 6e-05 s⁻¹ in assay [4], 9e-05 s⁻¹ in assay [5], 3e-05 s⁻¹ in assay [8] and 5e-05 s⁻¹ in [9].
